According to PMC9482650, “Quantitative fragmentomics allow affinity mapping of interactomes” (Nature Communications, 2022):

T1: LNX2_3, Q8N448
T1 sequence (Q8N448 463-564, limits assumed, looked up): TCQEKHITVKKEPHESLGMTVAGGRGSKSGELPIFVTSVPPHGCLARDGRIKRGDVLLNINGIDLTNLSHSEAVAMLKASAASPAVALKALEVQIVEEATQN

T2: MPDZ_12, O75970
T2 sequence (O75970 1857-1958, limits assumed, looked up): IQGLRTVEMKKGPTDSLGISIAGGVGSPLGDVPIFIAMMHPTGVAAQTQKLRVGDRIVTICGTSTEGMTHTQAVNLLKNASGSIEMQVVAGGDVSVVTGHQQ

T3: MPDZ_5, O75970
T3 sequence (O75970 695-796, limits assumed, looked up): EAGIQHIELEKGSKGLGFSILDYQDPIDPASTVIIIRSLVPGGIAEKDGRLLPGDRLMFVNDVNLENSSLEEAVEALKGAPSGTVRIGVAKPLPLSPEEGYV

T4: RAPGEF6, Q8TEU7
T4 sequence (Q8TEU7 525-625, limits assumed, looked up): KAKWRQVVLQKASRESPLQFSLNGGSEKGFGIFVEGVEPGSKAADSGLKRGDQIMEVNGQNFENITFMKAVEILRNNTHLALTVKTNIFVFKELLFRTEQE

T5: TIAM2, Q8IVF5
T5 sequence (Q8IVF5 885-986, limits assumed, looked up): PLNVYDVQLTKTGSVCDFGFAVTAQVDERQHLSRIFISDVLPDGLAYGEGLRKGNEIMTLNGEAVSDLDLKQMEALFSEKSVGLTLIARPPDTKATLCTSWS

T6: RHPN1, Q8TCX5
T6 sequence (Q8TCX5 508-602, limits assumed, looked up): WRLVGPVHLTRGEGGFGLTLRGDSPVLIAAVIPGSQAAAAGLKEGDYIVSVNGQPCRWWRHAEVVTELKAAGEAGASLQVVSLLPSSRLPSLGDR

T7: PTPN13_1, Q12923
T7 sequence (Q12923 1088-1188, limits assumed, looked up): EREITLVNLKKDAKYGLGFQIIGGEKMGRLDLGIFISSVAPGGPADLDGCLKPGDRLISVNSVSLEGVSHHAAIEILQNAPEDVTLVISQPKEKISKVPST

T8: GRIP1_2, Q9Y3R0
T8 sequence (Q9Y3R0 145-248, limits assumed, looked up): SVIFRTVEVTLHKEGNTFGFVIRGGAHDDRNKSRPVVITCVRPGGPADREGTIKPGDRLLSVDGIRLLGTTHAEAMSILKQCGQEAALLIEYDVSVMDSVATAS

T9: APBA1_1, Q02410
T9 sequence (Q02410 651-752, limits assumed, looked up): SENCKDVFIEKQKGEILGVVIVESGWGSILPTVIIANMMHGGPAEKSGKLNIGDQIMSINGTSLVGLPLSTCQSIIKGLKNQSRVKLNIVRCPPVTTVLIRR

T10: PDZD2_2, O15018
T10 sequence (O15018 329-429, limits assumed, looked up): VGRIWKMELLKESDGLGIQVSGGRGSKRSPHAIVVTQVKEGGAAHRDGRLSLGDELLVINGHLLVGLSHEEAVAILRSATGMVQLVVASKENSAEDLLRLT


Assays:
Assay in all cases: holdup assay
Parameters in all cases: key: below the threshold = too weak to quantify, mostly under pKd 3.1 to 4
Conditions in all cases: plain residues with an end cap or a label only (N-terminal biotin on a linker: ado-ado)
LAP2, Q96RT1 = molecular target: LAP2, Q96RT1
HTRA2, O43464 = molecular target: HTRA2, O43464
FRMPD2_1, Q68DX3 = molecular target: FRMPD2_1, Q68DX3
LNX2_3, Q8N448 = molecular target: T1, LNX2_3, Q8N448
DLG4_3, P78352 = molecular target: DLG4_3, P78352
GRIP2_7, Q9C0E4 = molecular target: GRIP2_7, Q9C0E4
NOS1, P29475 = molecular target: NOS1, P29475
FRMPD3, Q5JV73 = molecular target: FRMPD3, Q5JV73
PARD3_3, Q8TEW0 = molecular target: PARD3_3, Q8TEW0
DLG1_1, Q12959 = molecular target: DLG1_1, Q12959
LNX1_2, Q8TBB1 = molecular target: LNX1_2, Q8TBB1
MPDZ_12, O75970 = molecular target: T2, MPDZ_12, O75970
NHERF4_1, Q86UT5-2 = molecular target: NHERF4_1, Q86UT5-2
DLG2_3, Q15700 = molecular target: DLG2_3, Q15700
MAGI2_2, Q86UL8 = molecular target: MAGI2_2, Q86UL8
MPDZ_5, O75970 = molecular target: T3, MPDZ_5, O75970
RAPGEF6, Q8TEU7 = molecular target: T4, RAPGEF6, Q8TEU7
TIAM2, Q8IVF5 = molecular target: T5, TIAM2, Q8IVF5
RHPN1, Q8TCX5 = molecular target: T6, RHPN1, Q8TCX5
SNX27, Q96L92 = molecular target: SNX27, Q96L92
PTPN13_1, Q12923 = molecular target: T7, PTPN13_1, Q12923
MAST2, Q6P0Q8 = molecular target: MAST2, Q6P0Q8
DLG4_1, P78352 = molecular target: DLG4_1, P78352
GRIP2_3, Q9C0E4 = molecular target: GRIP2_3, Q9C0E4
GRIP1_2, Q9Y3R0 = molecular target: T8, GRIP1_2, Q9Y3R0
APBA1_1, Q02410 = molecular target: T9, APBA1_1, Q02410
PDZD2_2, O15018 = molecular target: T10, PDZD2_2, O15018
Inadl_1, Q8NI35 = molecular target: Inadl_1, Q8NI35
Chain of Inadl_1, Q8NI35 (Q8NI35 113-229): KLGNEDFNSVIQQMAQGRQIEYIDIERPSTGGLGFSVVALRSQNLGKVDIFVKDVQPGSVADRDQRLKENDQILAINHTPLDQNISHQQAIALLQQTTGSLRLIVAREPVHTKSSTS

Chain of MAST2, Q6P0Q8 (Q6P0Q8 1099-1202): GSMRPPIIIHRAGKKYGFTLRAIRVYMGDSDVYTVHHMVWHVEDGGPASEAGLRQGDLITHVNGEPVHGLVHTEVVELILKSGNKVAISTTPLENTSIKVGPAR
Chain of NOS1, P29475 (P29475 9-101): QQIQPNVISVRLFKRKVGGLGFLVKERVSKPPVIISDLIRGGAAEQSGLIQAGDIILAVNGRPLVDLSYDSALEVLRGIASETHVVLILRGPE
Chain of LAP2, Q96RT1 (Q96RT1 other isoform, or with tags, fused parts or gaps): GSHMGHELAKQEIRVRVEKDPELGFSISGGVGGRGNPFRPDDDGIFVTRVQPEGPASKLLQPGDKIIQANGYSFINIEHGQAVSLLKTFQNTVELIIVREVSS
Chain of DLG4_3, P78352 (P78352 306-403): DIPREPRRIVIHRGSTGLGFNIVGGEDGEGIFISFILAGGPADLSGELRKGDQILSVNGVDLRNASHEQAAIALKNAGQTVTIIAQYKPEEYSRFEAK
Chain of GRIP2_7, Q9C0E4 (Q9C0E4 934-1023): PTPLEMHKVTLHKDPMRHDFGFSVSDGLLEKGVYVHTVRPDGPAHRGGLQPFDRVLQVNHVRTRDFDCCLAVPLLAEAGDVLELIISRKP
Chain of GRIP2_3, Q9C0E4 (Q9C0E4 238-339): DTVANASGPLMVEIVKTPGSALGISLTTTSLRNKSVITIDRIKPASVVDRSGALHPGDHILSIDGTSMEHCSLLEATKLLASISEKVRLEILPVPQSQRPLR
Chain of HTRA2, O43464 (O43464 355-458): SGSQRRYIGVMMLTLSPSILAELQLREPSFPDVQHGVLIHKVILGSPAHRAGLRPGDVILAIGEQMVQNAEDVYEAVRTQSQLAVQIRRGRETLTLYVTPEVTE
Chain of FRMPD2_1, Q68DX3 (Q68DX3 770-861): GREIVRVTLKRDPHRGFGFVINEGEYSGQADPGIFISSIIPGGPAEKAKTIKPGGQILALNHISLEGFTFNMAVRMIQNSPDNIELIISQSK
Chain of LNX1_2, Q8TBB1 (Q8TBB1 371-470): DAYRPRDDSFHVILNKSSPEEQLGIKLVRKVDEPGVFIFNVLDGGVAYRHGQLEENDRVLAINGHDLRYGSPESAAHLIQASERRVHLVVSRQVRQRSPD
Chain of NHERF4_1, Q86UT5-2 (Q86UT5 other isoform, or with tags, fused parts or gaps): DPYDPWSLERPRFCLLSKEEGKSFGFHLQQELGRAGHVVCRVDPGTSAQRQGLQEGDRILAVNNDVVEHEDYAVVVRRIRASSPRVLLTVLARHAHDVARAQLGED
Chain of FRMPD3, Q5JV73 (Q5JV73 12-100): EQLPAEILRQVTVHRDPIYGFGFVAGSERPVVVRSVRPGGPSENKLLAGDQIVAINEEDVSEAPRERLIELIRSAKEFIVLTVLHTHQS
Chain of PARD3_3, Q8TEW0 (Q8TEW0 582-685): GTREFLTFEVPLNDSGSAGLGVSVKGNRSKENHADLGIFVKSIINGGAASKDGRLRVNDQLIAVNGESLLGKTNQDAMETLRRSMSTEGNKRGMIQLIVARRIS
Chain of MAGI2_2, Q86UL8 (Q86UL8 410-522): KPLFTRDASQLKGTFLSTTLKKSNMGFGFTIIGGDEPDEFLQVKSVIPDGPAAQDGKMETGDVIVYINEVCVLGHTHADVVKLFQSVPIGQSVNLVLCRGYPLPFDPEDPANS
Chain of DLG4_1, P78352 (P78352 62-152): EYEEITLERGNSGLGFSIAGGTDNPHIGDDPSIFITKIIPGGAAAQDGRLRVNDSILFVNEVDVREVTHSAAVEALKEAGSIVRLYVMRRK

Binder	pKd (LAP2, Q96RT1)	pKd (HTRA2, O43464)	pKd (FRMPD2_1, Q68DX3)	pKd (LNX2_3, Q8N448)	pKd (DLG4_3, P78352)	pKd (GRIP2_7, Q9C0E4)	pKd (NOS1, P29475)	pKd (FRMPD3, Q5JV73)	pKd (PARD3_3, Q8TEW0)	pKd (DLG1_1, Q12959)	pKd (LNX1_2, Q8TBB1)	pKd (MPDZ_12, O75970)	pKd (NHERF4_1, Q86UT5-2)	pKd (DLG2_3, Q15700)	pKd (MAGI2_2, Q86UL8)	pKd (MPDZ_5, O75970)	pKd (RAPGEF6, Q8TEU7)	pKd (TIAM2, Q8IVF5)	pKd (RHPN1, Q8TCX5)	pKd (SNX27, Q96L92)	further results
HLSTRQGTCV [ATRNL1, Q5VV63]	3.94	below the threshold	4.1	below the threshold	3.87	below the threshold	4.07	below the threshold	below the threshold	4.18	3.71	3.67	below the threshold	4.19	4.73	3.66	below the threshold	below the threshold	3.65	4.05	pKd (PTPN13_1, Q12923): below the threshold; pKd (MAST2, Q6P0Q8): 4.94; pKd (DLG4_1, P78352): 4.33; pKd (GRIP2_3, Q9C0E4): below the threshold; pKd (GRIP1_2, Q9Y3R0): below the threshold; pKd (APBA1_1, Q02410): below the threshold; pKd (PDZD2_2, O15018): 4.99; pKd (Inadl_1, Q8NI35): below the threshold
QRYPGNQTTC [CCL24, O00175]	below the threshold	below the threshold	below the threshold	below the threshold	below the threshold	below the threshold	below the threshold	below the threshold	below the threshold	3.71	3.49	below the threshold	below the threshold	3.87	below the threshold	below the threshold	3.58	4.09	4.2	below the threshold	pKd (PTPN13_1, Q12923): below the threshold; pKd (MAST2, Q6P0Q8): 4.74; pKd (DLG4_1, P78352): below the threshold; pKd (GRIP2_3, Q9C0E4): below the threshold; pKd (GRIP1_2, Q9Y3R0): below the threshold; pKd (APBA1_1, Q02410): below the threshold; pKd (PDZD2_2, O15018): below the threshold; pKd (Inadl_1, Q8NI35): below the threshold

Now from value to binder, other results behind:

pKd (LAP2, Q96RT1)	pKd (HTRA2, O43464)	pKd (FRMPD2_1, Q68DX3)	pKd (LNX2_3, Q8N448)	pKd (DLG4_3, P78352)	pKd (GRIP2_7, Q9C0E4)	pKd (NOS1, P29475)	pKd (FRMPD3, Q5JV73)	pKd (PARD3_3, Q8TEW0)	pKd (DLG1_1, Q12959)	pKd (LNX1_2, Q8TBB1)	pKd (MPDZ_12, O75970)	pKd (NHERF4_1, Q86UT5-2)	pKd (DLG2_3, Q15700)	pKd (MAGI2_2, Q86UL8)	pKd (MPDZ_5, O75970)	pKd (RAPGEF6, Q8TEU7)	pKd (TIAM2, Q8IVF5)	pKd (RHPN1, Q8TCX5)	pKd (SNX27, Q96L92)	Binder	further results
5.58	4.12	below the threshold	below the threshold	below the threshold	3.95	3.86	3.71	3.92	4.07	3.8	4.65	below the threshold	below the threshold	below the threshold	below the threshold	below the threshold	below the threshold	4.42	5.06	HYPASPDSWV [CTNND2, Q9UQB3]	pKd (PTPN13_1, Q12923): below the threshold; pKd (MAST2, Q6P0Q8): 4.17; pKd (DLG4_1, P78352): 4.37; pKd (GRIP2_3, Q9C0E4): below the threshold; pKd (GRIP1_2, Q9Y3R0): below the threshold; pKd (APBA1_1, Q02410): below the threshold; pKd (PDZD2_2, O15018): 5.99; pKd (Inadl_1, Q8NI35): below the threshold
3.67	3.96	below the threshold	below the threshold	below the threshold	4.36	3.51	4.15	4.25	below the threshold	4.07	below the threshold	below the threshold	below the threshold	below the threshold	below the threshold	below the threshold	below the threshold	below the threshold	4.14	VCMGDHWFDV [PRKN, O60260]	pKd (PTPN13_1, Q12923): below the threshold; pKd (MAST2, Q6P0Q8): 4.85; pKd (DLG4_1, P78352): below the threshold; pKd (GRIP2_3, Q9C0E4): below the threshold; pKd (GRIP1_2, Q9Y3R0): below the threshold; pKd (APBA1_1, Q02410): below the threshold; pKd (PDZD2_2, O15018): 4.57; pKd (Inadl_1, Q8NI35): below the threshold
below the threshold	below the threshold	below the threshold	below the threshold	below the threshold	below the threshold	below the threshold	below the threshold	below the threshold	3.83	below the threshold	below the threshold	below the threshold	below the threshold	4	below the threshold	below the threshold	below the threshold	3.77	4.04	KLQNPNQSVV [TYRP1, P17643]	pKd (PTPN13_1, Q12923): below the threshold; pKd (MAST2, Q6P0Q8): 4.7; pKd (DLG4_1, P78352): 3.91; pKd (GRIP2_3, Q9C0E4): below the threshold; pKd (GRIP1_2, Q9Y3R0): below the threshold; pKd (APBA1_1, Q02410): below the threshold; pKd (PDZD2_2, O15018): 4.57; pKd (Inadl_1, Q8NI35): below the threshold
